# Assay results published in patent US20250136650A1, “COMPOSITIONS AND METHODS FOR DNA BINDING AND TRANSCRIPTIONAL REGULATION” (THE UNIVERSITY OF CHICAGO, priority 2021, published 2025).
# Positions count from the first letter of the chain named. Entries after “also recorded” stand apart in the source; their conditions may differ. *1 amine or outer side, *2 acyl side, *3 side chain or, on linkers, in order; H or OH if unused. Bridges are numbered along the chain shown (N, C = ends). Roman numbers before positions name the chains, in order. [ ]: non-standard residue; d: D form. X1 = O=C1CC([*:1])C(=O)N1CC(=O)[*:2]; S5 = C=CCCC[C@](C)(N)C(=O)O
# Assays:
# [1] = system: T1, STR22 (XBP1-derived stapled bZIP dimer) (synthetic (human XBP1)); assay: cell_activity; details: +/-3.5; inhibition of XBP1s-induced luciferase in HeLa, 24 h
# T1 sequence 1: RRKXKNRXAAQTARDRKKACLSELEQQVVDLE
# T1 sequence 2: T1 sequence 1 with C20R, E25X
# [2] = system: FJSTR72 (Fos/Jun-derived stapled bZIP dimer) (synthetic (human c-Fos/c-Jun)); assay: EMSA
# [3] = target: AP-1 site; assay: EMSA, direct binding to AP-1 DNA probe
# Source text: The DNA binding dimer STR22 (shown in FIG. 21 and FIG. 27) was synthesized. STR22 was subjected to EMSA to measure binding to either the UPR element (UPRE) or AP-1 binding site (AP-1).
# (§1) bZIP transcriptional repressors FJSTR7 (shown in FIGS. 42 and 45), FJSTR71 (shown in FIGS. 52 and 53), and FJSTR72 (shown in FIGS. 52 and 54), were generated and tested.
# Electrophoretic Mobility Shift Assays (EMSAs): For direct DNA binding experiments, STRs were serially diluted at 10× concentration in water and then 1 μL of STR solution was added to 9 μL of 5 nM IRD700-labeled DNA probe bearing either a UPRE or AP-1 motif in a final 1×binding buffer (20 mM HEPES pH 8.0, 150 mM NaCl, 5% glycerol, 1 mM EDTA, 2 mM MgCl2, 0.5 mg/mL BSA, 1 mM DTT, 0.05% NP-40). Samples were incubated for 1 hr at RT. 5 μL of each reaction was loaded on an 8% acrylamide, 0.5×TBE gel equilibrated to 4° C. Samples were resolved for 60 min at 110 V and 4° C. with 0.5×TBE+1 mM MgCl2 running buffer. Gels were pre-run at 110 V for 15 min prior to sample loading. For competition experiments, 30 or 60 nM STRs and 5 nM labeled UPRE probe were incubated with 0, 7.8, 13, 21.6, 36, 60 or 100 nM unlabeled competitor oligo for 1 hr at RT. […] ImageJ was used to quantify band intensity and the fraction of bound DNA was calculated by dividing the band intensity of bound DNA by the band intensity of free DNA from the vehicle treated lane. […]
# [4] = system: Ebox site; assay: EMSA, binding to Ebox site
# Source text: as §1
# [5] = system: cells; assay: Fluorescent microscopy of cell penetration by FJSTRs; type: cell-based; details: FJSTR7 and FJSTR72 at 5 μM, FJSTR71 at 2 μM
# Source text: as §1
# [6] = system: MC38 tumors; assay: Subcutaneous MC38 tumor model; type: in vivo; details: MC38-bearing mouse, intratumoral
# [7] = system: T1, STR22 (XBP1-derived stapled bZIP dimer) (synthetic (human XBP1)); assay: competition; details: EMSA competition with unlabeled UPRE against 5 nM labeled UPRE
# [8] = system: T1, STR22 (XBP1-derived stapled bZIP dimer) (synthetic (human XBP1)); assay: EMSA; details: 20 mM HEPES pH 8.0, 150 mM NaCl, 2 mM MgCl2, RT 1 h; 14.17 nM reported in Example 4 (FIG. 2)
# [9] = target: T2, STR4 (XBP1-derived unstapled bZIP dimer, Met-to-Leu) (synthetic (human XBP1)) (UniProt P17861+P17861); assay: EMSA; details: 20 mM HEPES pH 8.0, 150 mM NaCl, 2 mM MgCl2, RT 1 h
# T2 sequence 1: T1 sequence 1 with X4L, X8V
# T2 sequence 2: T1 sequence 1 with X4L, X8V, C20R, E25X
substance,measurement,setting,value
3xUPRE luciferase reporter,IC50,[1],7400 nM
AP-1 site probe (FJSTR),Kd,[2],12 nM
"I: Ac-IRRERNKMAAAKSRNRRRECI[S5]ELQ[S5]EIEQLE-NH2 / II: Ac-RKRMRNRIAASKSRKRKLERI[S5]RLK[S5]KIKTLK-NH2 (linker I:20-II:25 via X1; staple (Z) I:22-I:26, II:22-II:26) [FJSTR72]",Kd,[3],12 nM
same,binding to Ebox site,[4],does not bind to the Ebox site
same,penetration of cells,[5],penetration; also recorded: capable of entering cells
same,tumor growth,[6],reduces tumor growth
TGACGTGG (double strand) [UPRE consensus competitor (unlabeled)],Ki,[7],28.6 nM
TGACGTGG (double strand) [UPRE consensus probe],Kd,[8],11 nM
same,Kd,[9],49 nM
